According to patent US20230192896A1 (published 2023):
Where a chain is given by its changes, count along the chain named. Values belong to the binder of their own block, whether it stands above or below them.

Target: T1, FX zymogen (UniProt P00742 41-179; P00742 183-488)
T1 chain 1: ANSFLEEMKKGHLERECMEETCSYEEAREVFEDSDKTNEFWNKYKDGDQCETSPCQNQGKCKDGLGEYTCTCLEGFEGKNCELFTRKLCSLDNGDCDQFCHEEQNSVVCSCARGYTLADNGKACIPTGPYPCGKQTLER
T1 chain 2: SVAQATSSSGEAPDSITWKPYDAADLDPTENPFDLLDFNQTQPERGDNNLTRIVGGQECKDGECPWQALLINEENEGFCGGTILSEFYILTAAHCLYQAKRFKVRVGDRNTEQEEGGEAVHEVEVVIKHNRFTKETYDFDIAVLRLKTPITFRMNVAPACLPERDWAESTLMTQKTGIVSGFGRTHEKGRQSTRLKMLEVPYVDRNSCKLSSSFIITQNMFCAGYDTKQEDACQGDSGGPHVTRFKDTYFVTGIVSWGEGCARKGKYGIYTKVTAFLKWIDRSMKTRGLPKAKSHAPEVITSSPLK
Experiment: BLI

B1: BIIB-12-932 (antibody, V domains shown)
VH: QVQLVESGGGVVQPGRSLRLSCAASGFTFSSYGMHWVRQAPGKGLEWVAVISYDGSNKYYADSVKGRFTISRDNSKNTLYLQMNSLRAEDTAVYYCARLGYRGASAFDIWGQGTMVTVSS
VL: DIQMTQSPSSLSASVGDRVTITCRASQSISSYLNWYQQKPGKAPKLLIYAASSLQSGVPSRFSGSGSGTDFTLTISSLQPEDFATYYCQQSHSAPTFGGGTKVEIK
- Kd: 29.3 nM

B2: BIIB-12-923 (antibody, V domains shown)
VH: QVQLVQSGAEVKKPGASVKVSCKASGYTFTSYYMHWVRQAPGQGLEWMGIINPSGGSTSYAQKFQGRVTMTRDTSTSTVYMELSSLRSEDTAVYYCARGAGYLQRAFDIWGQGTMVTVSS
VL: DIQMTQSPSTLSASVGDRVTITCRASQSISSWLAWYQQKPGKAPKLLIYKASSLESGVPSRFSGSGSGTEFTLTISSLQPDDFATYYCQQFKSLSFTFGGGTKVEIK
- Kd: 33.8 nM

B3: BIIB-12-1294 (antibody, V domains shown)
VH: QVQLVQSGAEVKKPGASVKVSCKASGYTFTSYYMHWVRQAPGQGLEWMGIINPSGGSTSYAQKFQGRVTMTRDTSTSTVYMELSSLRSEDTAVYYCARGTRSSRDMDVWGQGTTVTVSS
VL: B2 VL with F91V, K92N, S93T, L94F, S95P
- Kd: 37.3 nM

B6: BIIB-12-936 (antibody, V domains shown)
VH: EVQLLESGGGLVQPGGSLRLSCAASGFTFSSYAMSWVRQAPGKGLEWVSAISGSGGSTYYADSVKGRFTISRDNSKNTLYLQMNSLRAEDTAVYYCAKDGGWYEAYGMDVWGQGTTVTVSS
VL: EIVMTQSPATLSVSPGERATLSCRASQSVSSNLAWYQQKPGQAPRLLIYGASTRATGIPARFSGSGSGTEFTLTISSLQSEDFAVYYCQQSHNLPPTFGGGTKVEIK
- Kd: 66 nM

B7: BIIB-12-904 (antibody, V domains shown)
VH: QVQLVESGGGVVQPGRSLRLSCAASGFTFSSYGMHWVRQAPGKGLEWVAVISYDGSNKYYADSVKGRFTISRDNSKNTLYLQMNSLRAEDTAVYYCARGSGRSGYHYWGQGTLVTVSS
VL: B6 VL with S91A, H92F, L94W
- Kd: 42.3 nM

B8: BIIB-12-1327 (antibody, V domains shown)
VH: QVQLVESGGGVVQPGRSLRLSCAASGFTFSSYGMHWVRQAPGKGLEWVAVISYDGSNKYYADSVKGRFTISRDNSKNTLYLQMNSLRAEDTAVYYCAKLGLARGGGYGMDVWGQGTTVTVSS
VL: B6 VL with L11Q, S12Y, S91Y, L94F
- Kd: 38.3 nM

B11: BIIB-12-1298 (antibody, V domains shown)
VH: B7 VH with R98K, S100G, G101S, R102D, S103R, G104R, Y105V, H106G, Y107S
VL: DIQMTQSPSSVSASVGDRVTITCRASQGISSWLAWYQQKPGKAPKLLIYAASSLQSGVPSRFSGSGSGTDFTLTISSLQPEDFATYYCQQTNSLPITFGGGTKVEIK
- Kd: 33.5 nM

B14: BIIB-12-1300 (antibody, V domains shown)
VH: QVQLVESGGGVVQPGRSLRLSCAASGFTFSSYGMHWVRQAPGKGLEWVAVISYDGSNKYYADSVKGRFTISRDNSKNTLYLQMNSLRAEDTAVYYCARGSKYLHAWGQGTLVTVSS
VL: B11 VL with T91A, N92S, L94F, I96P
- Kd: 48.6 nM

B15: BIIB-12-1295 (antibody, V domains shown)
VH: QVQLVQSGAEVKKPGASVKVSCKASGYTFTSYYMVWVRQAPGQGLEWMGIINPSGGSTSYAQKFQGRVTMTRDTSTSTVYMELSSLRSEDTAVYYCARVGGATTGKIGYGMDVWGQGTTVTVSS
VL: B11 VL with S53N, T91A, N92I
- Kd: 42.6 nM

B16: BIIB-12-1332 (antibody, V domains shown)
VH: B3 VH with H35S, G99L, T100G, S102K, D105V, M106F, V108I, T114M
VL: B11 VL with T91V, L94F, I96L, I106F
- Kd: 53.5 nM

B17: BIIB-12-1306 (antibody, V domains shown)
VH: QVQLQESGPGLVKPSQTLSLTCTVSGGSISSGGYYWSWIRQHPGKGLEWIGSIYYSGSTYYNPSLKSRVTISVDTSKNQFSLKLSSVTAADTAVYYCARGAGGSAPWGQGTLVTVSS
VL: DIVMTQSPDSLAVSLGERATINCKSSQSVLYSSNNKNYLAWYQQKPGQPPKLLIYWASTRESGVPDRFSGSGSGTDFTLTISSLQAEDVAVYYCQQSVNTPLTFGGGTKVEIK
- Kd: 47 nM

B21: BIIB-12-1301 (antibody, V domains shown)
VH: QVQLVESGGGVVQPGRSLRLSCAASGFTFSSYGMHWVRQAPGKGLEWVAVISYDGSNKYYADSVKGRFTISRDNSKNTLYLQMNSLRAEDTAVYYCARTGNYGRGMPYWGQGTLVTVSS
VL: EIVLTQSPATLSLSPGERATLSCRASQSVSSYLAWYQQKPGQAPRLLIYDASKRATGIPARFSGSGSGTDFTLTISSLEPEDFAVYYCQQSSSWPPTFGGGTKVEIK
- Kd: 65 nM

B22: BIIB-12-915 (antibody, V domains shown)
VH: QLQLQESGPGLVKPSETLSLTCTVSGGSISSSRYYWGWIRQPPGKGLEWIGSIYYSGSTYYNPSLKSRVTISVDTSKNQFSLKLSSVTAADTAVYYCARVGGGYANPWGQGTLVTVSS
VL: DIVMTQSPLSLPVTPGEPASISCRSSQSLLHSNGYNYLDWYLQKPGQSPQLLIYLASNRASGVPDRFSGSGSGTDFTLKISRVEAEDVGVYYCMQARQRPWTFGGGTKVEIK
- Kd: 34.4 nM

B23: BIIB-12-1322 (antibody, V domains shown)
VH: QVQLVQSGAEVKKPGASVKVSCKASGYTFTSYYIHWVRQAPGQGLEWMGIINPSGGSTSYAQKFQGRVTMTRDTSTSTVYMELSSLRSEDTAVYYCARSRQRHRGDWYFDLWGRGTLVTVSS
VL: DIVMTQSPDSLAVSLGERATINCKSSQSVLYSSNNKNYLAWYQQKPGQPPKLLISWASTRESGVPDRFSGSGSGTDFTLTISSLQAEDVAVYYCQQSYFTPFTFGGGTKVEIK
- Kd: 36.1 nM

B24: BIIB-12-933 (antibody, V domains shown)
VH: B7 VH with G99L, S100P, G101R, R102F, S103T, Y105T, H106A
VL: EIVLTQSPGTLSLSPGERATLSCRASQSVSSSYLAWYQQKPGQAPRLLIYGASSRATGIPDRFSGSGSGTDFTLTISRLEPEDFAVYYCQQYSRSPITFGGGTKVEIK
- Kd: 50.3 nM

The remaining binders from weak to strong by Kd, led by results:

- Kd: 29 nM
B20: BIIB-12-1311 (antibody, V domains shown)
VH: B14 VH with R98K, S100R, K101H, L103W, H104A, A105V
VL: B21 VL with K53N, S91A, S93N, W94L

- Kd: 26 nM
B4: BIIB-12-1293 (antibody, V domains shown)
VH: B2 VH with A100S, Y102G, L103K, Q104H, A106G, F107L, I109V
VL: B11 VL with T91A, S93I, L94F, I96F

- Kd: 25.9 nM
B25: BIIB-12-1303 (antibody, V domains shown)
VH: QVQLVESGGGVVQPGRSLRLSCAASGFTFSSYGMHWVRQAPGKGLEWVAVISYDGSNKYYADSVKGRFTISRDNSKNTLYLQMNSLRAEDTAVYYCARGPTSRLFQHWGQGTLVTVS
VL: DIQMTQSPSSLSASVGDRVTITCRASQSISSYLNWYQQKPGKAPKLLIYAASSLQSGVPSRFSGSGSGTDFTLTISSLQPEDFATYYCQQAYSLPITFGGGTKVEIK

- Kd: 24 nM
B9: BIIB-12-926 (antibody, V domains shown)
VH: QVQLVQSGAEVKKPGASVKVSCKASGYTFTSYYMHWVRQAPGQGLEWMGIINPSGGSTSYAQKFQGRVTMTRDTSTSTVYMELSSLRSEDTAVYYCARDGRMARGASPDYWGQGTLVTVSS
VL: B6 VL with S91H, H92S, N93F, L94W

- Kd: 22.3 nM
B10: BIIB-12-924 (antibody, V domains shown)
VH: B21 VH with R98K, T99G, G100K, N101S, Y102S, G103E, M106L, P107N, Y108P
VL: B11 VL with T91G, L94F, I96L

- Kd: 15.6 nM
B12: BIIB-12-916 (antibody, V domains shown)
VH: B9 VH with D99G, M102Q, A103K, R104A, G105T, A106R, S107R, P108V, Y110V, L116V
VL: B11 VL with V11L, G28S, W32Y, A34N, T91L, N92A, S93I, L94T, I96F

- Kd: 15.2 nM
B18: BIIB-12-929 (antibody, V domains shown)
VH: B3 VH with G99D, T100Q, R101G, S102Y, D105S, M106F, V108I, T114M
VL: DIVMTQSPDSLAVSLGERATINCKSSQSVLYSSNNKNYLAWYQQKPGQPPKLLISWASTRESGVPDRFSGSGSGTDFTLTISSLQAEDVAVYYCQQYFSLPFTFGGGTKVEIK

- Kd: 13.5 nM
B5: BIIB-12-931 (antibody, V domains shown)
VH: QVQLVQSGAEVKKPGASVKVSCKASGYTFTSYYMSWVRQAPGQGLEWMGIINPSGGSTSYAQKFQGRVTMTRDTSTSTVYMELSSLRSEDTAVYYCARDPVQEYGPYYYYMDVWGKGTTVTVSS
VL: B6 VL with S91A, H92A, N93Y, L94W, P96W

- Kd: 10.6 nM
B19: BIIB-12-1321 (antibody, V domains shown)
VH: QVQLVQSGAEVKKPGSSVKVSCKASGGTFSSYAISWVRQAPGQGLEWMGGIIPIFGTANYAQKFQGRVTITADESTSTAYMELSSLRSEDTAVYYCARTPDTSSATDWGQGTLVTVSS
VL: B21 VL with L4M, A51S, K53N, S91F, S92T, S93N, W94L, P96Y

- Kd: 8.27 nM
B13: BIIB-12-1320 (antibody, V domains shown)
VH: QLQLQESGPGLVKPSETLSLTCTVSGGSISSSSYYWGWIRQPPGKGLEWIGSIYYSGSTYYNPSLKSRVTISVDTSKNQFSLKLSSVTAADTAVYYCARGSGLLVREHYYYYMDVWGKGTTVTVS
VL: B11 VL with V11L, G28S, W32Y, A34N, T91A, N92D, S93D, L94T, I96W
